{
  "source": "IntAct's records for PubMed 19966800",
  "biological_target": "caga_helpy cagA (UniProt P55980)",
  "sequence (P55980 whole entry)": "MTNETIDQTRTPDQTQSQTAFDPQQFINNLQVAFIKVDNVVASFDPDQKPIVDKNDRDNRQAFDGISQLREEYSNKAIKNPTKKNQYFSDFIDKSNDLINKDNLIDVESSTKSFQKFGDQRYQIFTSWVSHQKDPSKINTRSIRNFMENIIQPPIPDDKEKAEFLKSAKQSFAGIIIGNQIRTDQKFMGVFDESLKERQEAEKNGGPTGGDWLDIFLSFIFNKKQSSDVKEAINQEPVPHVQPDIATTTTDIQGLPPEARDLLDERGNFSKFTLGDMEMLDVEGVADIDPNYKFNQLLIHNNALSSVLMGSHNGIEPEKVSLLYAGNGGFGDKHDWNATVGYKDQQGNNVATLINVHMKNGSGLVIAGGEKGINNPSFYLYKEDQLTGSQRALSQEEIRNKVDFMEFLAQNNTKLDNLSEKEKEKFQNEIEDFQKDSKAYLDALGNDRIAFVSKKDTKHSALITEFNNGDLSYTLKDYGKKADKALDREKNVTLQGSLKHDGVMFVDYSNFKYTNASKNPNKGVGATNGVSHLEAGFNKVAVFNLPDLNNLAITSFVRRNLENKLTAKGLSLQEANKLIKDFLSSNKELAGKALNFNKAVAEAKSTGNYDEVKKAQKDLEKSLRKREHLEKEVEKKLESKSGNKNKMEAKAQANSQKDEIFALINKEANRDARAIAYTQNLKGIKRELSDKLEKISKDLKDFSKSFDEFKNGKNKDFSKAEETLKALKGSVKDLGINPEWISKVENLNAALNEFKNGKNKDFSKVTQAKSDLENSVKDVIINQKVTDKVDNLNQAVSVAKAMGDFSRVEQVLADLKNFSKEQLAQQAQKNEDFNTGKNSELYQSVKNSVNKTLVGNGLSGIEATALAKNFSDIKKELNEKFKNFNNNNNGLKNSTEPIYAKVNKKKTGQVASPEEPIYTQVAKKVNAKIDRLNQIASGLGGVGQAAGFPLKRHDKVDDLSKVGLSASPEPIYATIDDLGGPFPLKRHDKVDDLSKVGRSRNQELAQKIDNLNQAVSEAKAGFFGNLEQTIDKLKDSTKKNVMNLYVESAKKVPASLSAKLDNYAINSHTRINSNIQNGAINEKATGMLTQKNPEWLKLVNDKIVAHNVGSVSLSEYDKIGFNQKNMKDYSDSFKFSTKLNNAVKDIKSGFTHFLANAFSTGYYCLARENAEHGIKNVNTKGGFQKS",
  "data": [
    {"substance": "Serine/threonine-protein kinase MARK2 (Homo sapiens), Q7KZI7 E136G;F138G;D139G", "values": [
      {"measurement": "effect of a mutation on the interaction", "result": "disrupting interaction"}
    ]}
  ]
}
